The record followed here is patent US6495314 (Scripps Research, dated 2002).

Test [1] concerns the target T1, Ac-CWAcp-PPPALPPKKR.amide, C3G-derived peptide designed for attachment to an affinity column (N-terminal acetyl; ε-aminocaproic acid (Acp, B) at position 3; C-terminal amide; on the column the Cys side chain is coupled to iodoacetyl agarose (Sulfolink)).
T1 construct: also called Acetyl-CWAcp-C3G; Ac-CWBPPPALPPKKR.amide
T1 peptide: CWPPPALPPKKR
As to the kind of experiment: 19-member array on C3G peptide affinity column, MALDI MS readout.

The target of test [2] is T1, Ac-CWAcp-PPPALPPKKR.amide, C3G-derived …. Nature of the test: Example 2: nine-member array on C3G peptide affinity column, MALDI MS readout. The protocol:
(§1) The column was then washed with 0.5 M NaCl buffer to remove nonspecific binding proteins from the column. Specifically bound protein analogues were then eluted with 1 M hydroxylamine bufffer. Amounts of eluted peptide were monitored by UV absorbance at 280 nm. This procedure was used for both the C3G peptide column and for the control column loaded with Ac-C-AcpYGGFL.amide.
(§2) Affinity chromatography of the arrays of protein analogues was carried out as follows. […] After incubation at room temperature for a period of 6–8 hours the column was washed with 0.5 M NaCl in 0.1 M sodium phosphate, pH 7.0 buffer (6×1 mL) to remove any non-specifically bound proteins. The first two 1 mL fractions were collected and immediately mixed with an equal volume of 1 M NH_2OH, 20 mM NH_4HCO_3, pH 5.5 buffer to cleave any thioester-containing protein analogues. […] Samples of the eluted fractions were monitored by UV absorbance at 280 nm. This procedure was used for both the C3G peptide column and for the control column loaded with Ac-C-Acp-YGGFL.amide. To accommodate MALDI analysis, both the 0.5M NaCl wash and 1 M NH_2OH fractions were desalted on a low pressure, disposable C-18 column, washed with HPLC buffer A and peptide fragments eluted with 1.5 mL 60% acetonitrile in water, 0.1% TFA.

Test [3] has as its target T2, control peptide Ac-CAcpYGGFL.amide (YGGFL = leucine enkephalin) (not fully specified (residue 1); also: Cys side chain coupled to Sulfolink agarose).
T2 construct: also called Ac-CBYGGFL.amide; Leucine-Enkephalin agarose column
T2 peptide: Ac-CYGGFL-NH2
As to the kind of experiment: nine-member array on control peptide column, A280. The protocol:
as §1, §2

B1: c-Crk N-terminal SH3 domain (134-191) analogue, L^151P^152 replaced by Gly-[COS]-βAla (other)
chain: AEYVRALFDFNGNDEEDGXFKKGDILRIRDKPEEQWWNAEDSEGKRGMIPVPYVEKYR
modifications: not fully specified; Gly-[COS]-βAla unit (-NH-CH2-CO-S-CH2-CH2-CO-) in place of L151-P152; backbone thioester
notes: Positions count on murine c-Crk; X = -S-CH2CH2-CO- unit; Tested crude in a pooled array; also called LP
For the molecule B1, the binding result in test [1] is on record as “binds”.

B2: c-Crk N-terminal SH3 domain (134-191) analogue, dipeptide GD (156-157) replaced by Gly-[COS]-βAla (other)
chain: AEYVRALFDFNGNDEEDLPFKKGXILRIRDKPEEQWWNAEDSEGKRGMIPVPYVEKYR
modifications: not fully specified; Gly-[COS]-βAla unit (-NH-CH2-CO-S-CH2-CH2-CO-) in place of G156-D157; backbone thioester
notes: G156 stays Gly; Positions count on murine c-Crk; X = -S-CH2CH2-CO- unit; also called Gly-SβAla analogue
As for B2, the binding result in test [2] and in test [3] was “no binding” throughout.

B3: c-Crk N-terminal SH3 domain (134-191) analogue, R^162D^163 replaced by Gly-[COS]-βAla (other)
chain: AEYVRALFDFNGNDEEDLPFKKGDILRIGXKPEEQWWNAEDSEGKRGMIPVPYVEKYR
modifications: not fully specified; Gly-[COS]-βAla unit (-NH-CH2-CO-S-CH2-CH2-CO-) in place of R162-D163; backbone thioester
notes: Positions count on murine c-Crk; X = -S-CH2CH2-CO- unit; also called RD; Gly-SβAla analogue
Consider B3, for which the binding result in test [3] is listed as “no binding”; in test [1] it was “binds”.

B4: c-Crk N-terminal SH3 domain (134-191) analogue, dipeptide KG (155-156) replaced by Gly-[COS]-βAla (other)
chain: AEYVRALFDFNGNDEEDLPFKGXDILRIRDKPEEQWWNAEDSEGKRGMIPVPYVEKYR
modifications: not fully specified; Gly-[COS]-βAla unit (-NH-CH2-CO-S-CH2-CH2-CO-) in place of K155-G156; backbone thioester
notes: It is one of the 19 dipeptide positions within c-Crk(146-165); Positions count on murine c-Crk; X = -S-CH2CH2-CO- unit; Tested crude in a pooled array
In the case of B4, the binding result in test [1] is on record as “no binding”.

B5: c-Crk N-terminal SH3 domain (134-191) analogue, I^161R^162 replaced by Gly-[COS]-βAla (other)
chain: AEYVRALFDFNGNDEEDLPFKKGDILRGXDKPEEQWWNAEDSEGKRGMIPVPYVEKYR
modifications: not fully specified; Gly-[COS]-βAla unit (-NH-CH2-CO-S-CH2-CH2-CO-) in place of I161-R162; backbone thioester
notes: Positions count on murine c-Crk; X = -S-CH2CH2-CO- unit; also called IR; Gly-SβAla analogue
Regarding B5, the binding result in test [3] was “no binding”; in test [1], “binds”.

B6: c-Crk N-terminal SH3 domain (134-191) analogue, D^163K^164 replaced by Gly-[COS]-βAla (other)
chain: AEYVRALFDFNGNDEEDLPFKKGDILRIRGXPEEQWWNAEDSEGKRGMIPVPYVEKYR
modifications: not fully specified; Gly-[COS]-βAla unit (-NH-CH2-CO-S-CH2-CH2-CO-) in place of D163-K164; backbone thioester
notes: Positions count on murine c-Crk; X = -S-CH2CH2-CO- unit; also called DK; Gly-SβAla analogue
Take B6: the binding result in test [3] is “no binding”; in test [1] it was “binds”.

B7: c-Crk N-terminal SH3 domain (134-191) analogue, dipeptide PF (152-153) replaced by Gly-[COS]-βAla (other)
chain: AEYVRALFDFNGNDEEDLGXKKGDILRIRDKPEEQWWNAEDSEGKRGMIPVPYVEKYR
modifications: not fully specified; Gly-[COS]-βAla unit (-NH-CH2-CO-S-CH2-CH2-CO-) in place of P152-F153; backbone thioester
notes: as for B4
In the case of B7, the binding result in test [1] is reported as “no binding”.

B8: c-Crk N-terminal SH3 domain (134-191) analogue, dipeptide RI (160-161) replaced by Gly-[COS]-βAla (other)
chain: AEYVRALFDFNGNDEEDLPFKKGDILGXRDKPEEQWWNAEDSEGKRGMIPVPYVEKYR
modifications: not fully specified; Gly-[COS]-βAla unit (-NH-CH2-CO-S-CH2-CH2-CO-) in place of R160-I161; backbone thioester
notes: Positions count on murine c-Crk; X = -S-CH2CH2-CO- unit; also called Gly-SβAla analogue
Take B8: the binding result in test [3] and in test [1] was “no binding” in each case.

B9: c-Crk N-terminal SH3 domain (134-191) analogue, D^147E^148 replaced by Gly-[COS]-βAla (other)
chain: AEYVRALFDFNGNGXEDLPFKKGDILRIRDKPEEQWWNAEDSEGKRGMIPVPYVEKYR
modifications: not fully specified; Gly-[COS]-βAla unit (-NH-CH2-CO-S-CH2-CH2-CO-) in place of D147-E148; backbone thioester
notes: Positions count on murine c-Crk; X = -S-CH2CH2-CO- unit; Tested crude in a pooled array; also called DE
On to B9, for which, in test [1], the binding result is reported as “binds”.

B10: c-Crk N-terminal SH3 domain (134-191) analogue, dipeptide KK (154-155) replaced by Gly-[COS]-βAla (other)
chain: AEYVRALFDFNGNDEEDLPFGXGDILRIRDKPEEQWWNAEDSEGKRGMIPVPYVEKYR
modifications: not fully specified; Gly-[COS]-βAla unit (-NH-CH2-CO-S-CH2-CH2-CO-) in place of K154-K155; backbone thioester
notes: as for B4
As for B10, the binding result in test [1] is reported as “no binding”.

B11: c-Crk N-terminal SH3 domain (134-191) analogue, dipeptide ED (149-150) replaced by Gly-[COS]-βAla (other)
chain: AEYVRALFDFNGNDEGXLPFKKGDILRIRDKPEEQWWNAEDSEGKRGMIPVPYVEKYR
modifications: not fully specified; Gly-[COS]-βAla unit (-NH-CH2-CO-S-CH2-CH2-CO-) in place of E149-D150; backbone thioester
notes: Positions count on murine c-Crk; X = -S-CH2CH2-CO- unit; Tested crude in a pooled array
Turning to B11, the binding result in test [1] is on record as “no binding”.

B12: c-Crk N-terminal SH3 domain (134-191) analogue, dipeptide IL (158-159) replaced by Gly-[COS]-βAla (other)
chain: AEYVRALFDFNGNDEEDLPFKKGDGXRIRDKPEEQWWNAEDSEGKRGMIPVPYVEKYR
modifications: not fully specified; Gly-[COS]-βAla unit (-NH-CH2-CO-S-CH2-CH2-CO-) in place of I158-L159; backbone thioester
notes: as for B8
Turning to B12, the binding result in test [3] and in test [1] was “no binding” each time.

B13: c-Crk N-terminal SH3 domain (134-191) analogue, dipeptide LR (159-160) replaced by Gly-[COS]-βAla (other)
chain: AEYVRALFDFNGNDEEDLPFKKGDIGXIRDKPEEQWWNAEDSEGKRGMIPVPYVEKYR
modifications: not fully specified; Gly-[COS]-βAla unit (-NH-CH2-CO-S-CH2-CH2-CO-) in place of L159-R160; backbone thioester
notes: as for B8
In the case of B13, the binding result in test [3] and in test [1] was “no binding” in each case.

B14: c-Crk N-terminal SH3 domain (134-191) analogue, dipeptide DL (150-151) replaced by Gly-[COS]-βAla (other)
chain: AEYVRALFDFNGNDEEGXPFKKGDILRIRDKPEEQWWNAEDSEGKRGMIPVPYVEKYR
modifications: not fully specified; Gly-[COS]-βAla unit (-NH-CH2-CO-S-CH2-CH2-CO-) in place of D150-L151; backbone thioester
notes: as for B11
On to B14, for which the binding result in test [1] is given as “no binding”.

B15: c-Crk N-terminal SH3 domain (134-191) analogue, E^148E^149 replaced by Gly-[COS]-βAla (other)
chain: AEYVRALFDFNGNDGXDLPFKKGDILRIRDKPEEQWWNAEDSEGKRGMIPVPYVEKYR
modifications: not fully specified; Gly-[COS]-βAla unit (-NH-CH2-CO-S-CH2-CH2-CO-) in place of E148-E149; backbone thioester
notes: as for B11
Consider B15, for which, in test [1], the binding result is “binds”.
